The supplement of paper PMC10567573

B1: KLHDC10 (parent)
chain: PSLLELAWEKLLAAFPNLANLSRT

Variants of: B1
Assay: protein stability index of a GFP-peptide fusion (GPS, HEK-293T) (PSI 1-6); higher = more stable
Conditions: c terminus: a fixed tail appended
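Note: lentivirally expressed fusions sorted by FACS into six bins by GFP to DsRed ratio, PSI derived from sequencing read proportions per bin multiplied by bin number.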

Protein stability index, by site and new letter:
L6: H 1.59 | I 2.06 | K 3.43 | A 1.94 | M 2.47 | V 2.33 | F 2.01 | R 1.72 | N 2.09 | Q 2
A14: G 1.81 | H 2.15 | N 2.2 | I 2.83 | D 2.19 | L 2.75 | K 2.1 | W 3.3 | C 2.58 | F 2.82 | E 2.11 | Y 3 | T 2.2 | V 2.4
E5: T 2.31 | L 2.19 | A 2.28 | P 1.34 | G 2.42 | H 2.39 | C 1.97 | N 2.72 | K 2.28 | Q 2.49 | M 2.04
P16: S 1.4 | F 1.51 | T 2.01 | V 3.1 | Y 2.06 | I 1.63 | G 1.25 | E 1.45 | M 2.62 | H 1.55 | C 2.23
S2: V 1.86 | A 2.09 | N 1.77 | R 1.82 | I 1.17 | C 1.34 | M 1.61 | K 2.17 | P 2.25 | Q 1.79 | H 1.78 | W 1.94 | Y 2.36 | D 2.67
E9: N 2.62 | G 2 | F 1.44 | R 2.37 | P 2 | A 1.84 | H 1.93 | I 2.07 | K 1.97 | Y 1.59 | D 2.22 | L 2.29 | M 1.61 | S 2.35 | W 1.14
L3: W 1.9 | F 2.22 | A 2.24 | K 2.33 | H 1.75 | Q 2.29 | R 2.06 | P 1.72 | V 1.73 | N 1.63 | E 1.83 | Y 1.86 | C 1.85 | T 1.97
A13: N 2.04 | I 2.46 | D 2.12 | L 1.74 | V 1.79 | K 1.95 | S 2.28 | E 1.99 | T 2.2 | G 2.06 | C 2.01 | M 2.51 | Y 1.85 | H 2.83 | Q 2.25 | R 1.8
R23: K 2.16 | S 1.55 | E 1.87 | A 1.55 | P 1.99 | V 2.33 | I 1.78 | C 1.98 | N 2.17 | L 2.42 | M 1.87 | G 2.76 | Q 2.1 | Y 1.67 | T 2.22
F15: N 2.31 | D 2.3 | G 2.08 | R 2.11 | I 1.39 | W 2.4 | T 2.1 | S 1.92 | M 2.06 | L 2.16 | Y 1.7 | K 1.78 | Q 2.52 | P 2.49
N20: C 2.68 | M 3.12 | E 2.25 | D 1.51 | G 2.12 | K 1.49 | P 1.89 | V 2.47 | F 2.17 | R 1.89 | Y 2.22 | I 2.24 | H 2.46 | S 2.59 | T 1.62 | Q 2.09 | W 2.04 | A 2.08
T24: C 1.6 | M 2.17 | Q 1.56 | S 2.14 | I 2.03 | N 2.23 | V 2.29 | P 2.44 | W 2.28 | D 2.79 | G 2.17 | L 1.85
L18: T 1.96 | K 1.78 | S 2.01 | M 1.84 | V 1.81 | R 1.73 | N 2.97 | A 2.15 | G 2.56 | D 2.1 | Y 1.86 | Q 2.35 | I 2.08
K10: T 1.69 | F 2.25 | R 1.9 | Q 1.95 | C 1.63 | I 1.7 | D 1.84 | N 1.48 | Y 1.75 | W 2.53 | H 2.09
A19: C 2.04 | K 1.95 | S 2 | Q 2.37 | T 1.77 | H 1.93 | L 1.8 | W 1.57 | D 2.46 | Y 2.02 | R 2.4 | P 2.29 | F 2
N17: Q 1.94 | P 1.97 | V 2.18 | H 2.13 | F 2.25 | M 2.56 | Y 2.44 | S 2.29 | C 1.81 | A 2.5 | L 2.15 | G 3.66 | R 2.09 | D 2.03 | T 1.8
S22: E 2.59 | D 1.95 | L 2.4 | F 2.46 | R 2.71 | I 2.28 | Y 1.81 | P 2.21 | V 1.78 | Q 2.38 | W 2.21 | M 2.02 | K 2.57 | H 2.11
L12: G 2.66 | Q 2.23 | F 2.3 | S 1.9 | M 1.85 | V 2.44 | P 2.17 | W 1.71 | H 2.33 | Y 1.76 | D 3.04 | I 2.12 | T 2.37 | N 2.32 | R 1.88 | K 3.22
L11: I 2.23 | T 1.92 | A 2.36 | W 2.06 | K 1.62 | E 2.55 | S 2.2 | C 1.88 | N 2.26 | H 1.92 | D 2.14 | P 2.39 | F 2.29 | M 1.6
P1: L 2.23 | R 2.12 | F 2.52 | H 2.21 | D 2.06 | T 1.85 | A 2.42 | Q 2.21 | I 1.92 | V 2 | E 3.28 | Y 1.67 | W 1.8 | M 1.94
A7: E 2.74 | V 2.22 | I 1.97 | N 2.28 | Y 2.08 | K 2.73 | P 1.77 | S 2.58 | W 1.84 | M 2.33 | T 1.28 | G 1.96 | L 2.29 | R 2.35
L21: K 2.38 | I 1.76 | T 2.6 | G 2.22 | N 2.52 | S 2.17 | H 2.72 | P 2.07 | E 1.82 | F 2.54 | A 2.14 | M 2.25 | W 2.6 | Q 2.05 | R 2.38 | V 2.35
L4: E 2.1 | T 3.05 | D 2.07 | C 3.05 | M 2.47 | I 2.01 | W 2.53 | Y 2.06 | K 3.92 | F 2.75 | G 2.58 | A 3.11 | N 2.83 | R 3.93
W8: Q 2.88 | T 1.94 | H 2.54 | K 2.61 | L 1.58 | E 2.97 | Y 2.04 | A 1.77 | F 2.56 | R 2.52 | M 1.95 | D 2.37 | S 2.24 | P 3.21 | N 2.37 | V 2.19
